Laboratory results as given in patent US9744212B2, “Galectin-3C combination therapy for human cancer” (Texas Tech University System, priority 2011, dated 2017).

How the values were obtained:
[1] = system: GFP-expressing HUVECs in U266 tumors; experiment: Pilot study of in vivo angiogenesis inhibition (GFP-HUVEC plus U266 in Matrigel, nude mice); set-up: species or system mouse
Description: Pilot study of in vivo angiogenesis inhibition by Gal-3C. To determine the ability of Gal-3C to inhibit angiogenesis in vivo, 106 HUVECs infected with GFP-expressing rAAV vectors and 107 U266 MM cells were mixed together and suspended in 300 μL Matrigel. The cell mixture was injected subcutaneously into 6 nude mice and allowed to grow for two weeks. Three days after tumor administration, the mice were divided into two groups and one group was implanted with osmotic mini-pumps and treated with Gal-3C as in the study describe above. After 2 weeks, mice were sacrificed, pictures were taken, and the GFP-expressing cells in tumor masses were analyzed by flow cytometry.
The ability of Gal-3C to inhibit angiogenesis in vivo was determined in a pilot study. Six mice were injected with […] HUVECs and 107 U266 MM cells suspended in Matrigel and divided into two groups after two weeks. One group of 3 mice was implanted with osmotic mini-pumps and treated with Gal-3C as described above.

HUVEC [2] = experiment: HUVEC chemotaxis (migration) toward U266 conditioned media; type: cell-based, human; conditions: U266 treated 48 h with 10 μg/mL Gal-3C, 5 nM Bor or both; 20% conditioned medium; ANOVA, Tukey's post-test
Description: Chemotaxis of HUVEC Cells. Chemotaxis (migration) was analyzed with HUVEC cells as a measure of angiogenic potential as reported (86), using 50×10^3 cells/well and 24-well transwell inserts with 8-μm pores. […] As a negative control, EGM-2 medium alone was used. After incubation for 16 h, cells were removed from the upper chamber, and the migrated cells were visualized on the lower side of the filter after fixing and staining with 30% methanol, 10% acetic and 0.1% Coomassie Brilliant Blue. Next, the filters were extensively washed with water, and then air-dried and photographed using an inverted X71 microscope (Olympus, Center Valley, Pa., USA). The average number of cells in 4 random fields per filter was calculated. The studies were run in triplicate and the results are expressed as a migration index (MI), as follows: MI=number of cells migrated in the presence of conditioned medium/number of cells migrated in the presence of EGM-2 alone. […] All assays were run in triplicate.
FIG. 3A is a graph of the results from the vascular endothelial cell migration assay. FIG. 3B is an image of the filters. […] Mean migration indexes (left; ±95% C.I.) expressed as the number of cells migrated in the presence of the indicated stimulus divided by the number of cells migrated in the presence of EBM-2 alone. […]

human breast cancer = conditions: mouse model of human breast cancer, reference (60); cited from earlier work
[3] = system: NF-kB (serine 529 phosphorylated p65 subunit); experiment: Quantification of NF-kappaB activation by flow cytometry in U266 cells; type: cell-based, human; conditions: 48 hours
Description: Quantification of NF-kappaB Activation by Flow Cytometry. For measurement of NF-kB activation, 200×10^3 cells were fixed with 2% PFA in ice-cold PBS for 30 minutes. After removal of PFA, cells were permeabilized with 0.3% saponin in PBS on ice for 15 minutes, then washed and resuspended in 50 μL PBS supplemented with 1% BSA. PE-labeled anti-phosphorylated serine 529 p65 antibody (BD Biosciences, San Jose, Calif., USA) or isotype control (final dilution, 1:20) and allowed to incubate on ice in the dark for 30 minutes. Before flow-cytometric analysis cells were washed 3 times in 1-mL cold PBS with 1% BSA.
FIG. 8A is a dot-plot of NF-kB activation in U266 cells. After 48 hours in the presence of indicated treatments, the levels of active NF-KB (serine 529 phosphorylated p65 subunit) were evaluated in U266 cells by flow cytometry.

[4] = system: U266 MM subcutaneous tumors; experiment: U266 subcutaneous tumor model of MM in NOD/SCID mice; type: in vivo, mouse; conditions: for mean difference of tumor volume between Gal-3C and Bor: Gal-3C lower than Bor, P<0.001
Description: Testing Gal-3C and Bonin NOD/SCID mouse model of MM: Prior to injection, U266 cells were washed once in Dulbecco's PBS (Sigma-Aldrich), counted, and adjusted to the appropriate density with additional PBS prior to inoculation. PBS containing a suspension of 1×10^7 U266 cells was injected subcutaneously into the abdomen of naive NOD/SCID mice. The primary tumors were measured with a pair of calipers once a week. Tumor volume was calculated by the formula width 2×length×0.5, where width was the smallest dimension. The mice were randomly divided into four groups with five mice in each group after 14 days. Control group #1 was subcutaneously implanted in the abdomen with a PBS-only containing 200-μl mini-osmotic pump. Group #2 received a dose of Gal-3C (30 μg/d/mouse) subcutaneously over a 16-day period for a total of 500 μg via a 200-μl mini-osmotic pump implanted abdominally. Group #3 was treated with six doses of 15 μg Bonin 50-μl injections via the tail vein on days 1-2, 8-9, and 15-16 for a total of 90 μg. Group #4 received Gal-3C via mini-pump for a total dose of 500 μg Gal-3C (30 μg/d/mouse) plus a total 90 μg Bor in 21 days. Anesthetized animals were euthanized and a post-mortem examination was conducted on the whole animals and dissected organs after 35 days.

HUVEC [5] = experiment: HUVEC tubule formation assay on Matrigel with U266 conditioned media; type: cell-based, human; conditions: 20% V/V conditioned medium of U266 treated 48 h with 10 μg/mL Gal-3C, 5 nM Bor or both; 16-hour incubation
Description: HUVEC Tubule Formation Assay. A tubule formation assay was performed in vitro as described (86) to measure angiogenesis. Briefly, growth factor-reduced Matrigel (Becton Dickinson) was allowed to polymerize in the presence of 30 ng/mL recombinant basic fibroblastic growth factor (bFGF; R&D Systems) for 1 hour at 37° C.
FIG. 5 is an image of the results from the In vitro tubule formation assay having 6 regions. Serum-starved HUVEC were allowed to form tubules on a […]™ surface in the presence of VEGF (positive control), EMB-2 medium alone (negative control), or EBM-2 supplemented with 20% V/V U266 conditioned media (c.m.). […] To evaluate the effect of different treatments on the ability of U266 cells to induce angiogenesis, a […]™-based tubule formation assay was performed in the presence of U266 conditioned media as described for the chemotaxis assay. Serum-starved (5×103) HUVEC were seeded on the […]™ surface in 200-μL EBM-2 medium supplemented with 20% V/V conditioned medium. Pictures were taken after 16-hour incubation in 5% CO2 at 37° C. The assay was run in triplicate and representative images are depicted in FIG. 5. As a positive control, EBM-2 medium supplemented with 20 ng/mL VEGF was used.

B1: Gal-3C: N-terminally truncated human galectin-3 consisting of 143 carboxy-terminal amino acid residues, SEQ ID NO: 1 (protein)
chain: GAPAGPLIVPYNLPLPGGVVPRMLITILGTVKPNANRIALDFQRGNDVAFHFNPRFNENNRRVIVCNTKLDNNWGREERQSVFPFESGKPFKIQVLVEPDHFKVAVNDAHLLQYNHRVKKLNEISKLGISGDIDITSASYTMI
- mean fluorescence intensity (MFI) of cells from tumor masses ([1]; GFP-expressing HUVEC, FACS, controls 19.24): 9.4 MFI
- reduction of the number of endothelial cells in the tumors ([1]; compared to control mice): 48%
- GFP-expressing HUVECs as share of the cells in tumor masses ([1]; controls 89.3%): 46.2%
- subcutaneous vascularization near tumors ([1]; image analyses of nude mice): markedly reduced
- tumor size (white circles, representative mouse) ([1]; nude mice, control 7 mm): 3 mm
- migration index compared with controls (HUVEC [2]): no significant difference
- adverse side effects (human breast cancer): no evidence of adverse side effects
- tumor growth and metastasis (human breast cancer): inhibited tumor growth and metastasis
- NF-kB activation (phosphorylated active form) [3]: did not have a significant effect
- mean difference of tumor volume between Gal-3C and Bor ([4]; day 21): 4.431±1.494 mm^3
- average tumor volume relative to that of the untreated controls ([4]; day 35, Gal-3C 30 μg/d/mouse by mini-osmotic pump, Bor six doses of 15 μg via tail vein): 13.5%
- mean difference of tumor volume between Gal-3C and Bor ([4]; day 35): 31.54±4.379 mm3
- potential of U266 cells for induction of angiogenesis (tubule formation) (HUVEC [5]): almost completely impaired
